Target: T1, CD47 on human cancer cells and in human tumor and normal tissue samples (human, UniProt Q08722 19-323)
T1 construct: whole, on cells; also called CD47 antigen; CD47 tumor antigen
Experiment: IHC staining of tumor and normal tissue samples

binding result: binds
B1: humanized CD47 ScFv fused in frame with C-terminal human Fc (scFv)
scFv: EVQLVESGGGLVQPGGSLRLSCAASGFTFSGYGMSWVRQAPGKGLEWVATITSGGTYTYYPDSVKGRFTISRDNAKNSLYLQMNSLRAEDTAVYYCARSLAGNAMDYWGQGTLVTVSSGGGGSGGGGSGGGGSEIVLTQSPATLSLSPGERATLSCRASQSISDYLHWYQQKPGQAPRLLIYFASQRATGIPARFSGSGSGTDFTLTISSLEPEDFAVYYCQQGHGFPRTFGGGTKVEIK
notes: also called humanized anti-CD47 scFv; not shown: C-terminal human Fc from pYD11 vector

From US20190338028A1 (PROMAB BIOTECHNOLOGIES, published 2019)
